Data published in the supplement of paper PMC9732359.
± gives the uncertainty stated by the source.

Assay: protein stability index of a GFP-peptide fusion (yeast GPS) (PSI 1-4); higher = more stable; sorted into four equal gates, so the index is relative within each strain
Method in brief: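 Plasmids in a pooled yeast library fused tiled 17-residue yeast protein peptides downstream of GFP and also expressed Cherry. Mid-log cultures grown without leucine were sorted into four equal gates by GFP/Cherry fluorescence ratio. Each gate's plasmids were PCR-amplified and Illumina-sequenced, and reads were matched to strains by barcodes. The protein stability index is derived by multiplying each gate's read frequency by its gate number and summing the results.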

Row | Sequence | protein stability index (doa10∆) | protein stability index (pdr5∆) | protein stability index (san1∆) | protein stability index (ubr1∆)
1 | KLQENRTLLTEEIEPKL [SMC2] | 2.91 ± 0.2 | 3.29 ± 0.18 | 2.76 ± 0.15 | 3.19 ± 0.14
2 | QALIHGLNRHYYSLNID [RPN11] | 1.98 ± 0.15 | 2.4 ± 0.1 | 2.44 ± 0.068 | 2.42 ± 0.068
3 | YPIYELLMSCPRLSHLS [GRR1] | 1.42 ± 0.056 | 1.4 ± 0.048 | 1.45 ± 0.14 | 1.39 ± 0.052
4 | NGERKFLKEKDTVAELQ [FAS2] | – | 3.38 ± 0.23 | 3.11 ± 0.24 | 3.02 ± 0.076
5 | DSIPYPQIVKLFDISRE [ECM29] | 1.65 ± 0.065 | 1.3 ± 0.057 | 1.23 ± 0.073 | 2.08 ± 0.039
6 | ILSLATEGCIGLSQTEA [MCD1] | 2.58 ± 0.056 | 2.49 ± 0.068 | 2.81 ± 0.09 | 2.4 ± 0.062
7 | EIENLDKELRKTKFQYK [YIL149C/MLP2] | 2.73 ± 0.081 | 3.02 ± 0.086 | 3.07 ± 0.067 | 2.92 ± 0.074
8 | QTRKEYNTSILEFRWLT [SIN4] | 1.74 ± 0.073 | 1.74 ± 0.059 | 1.83 ± 0.093 | 2.42 ± 0.098
9 | MGAYKYLEELQRKKQSD [RPL15A] | – | 2.75 ± 0.28 | – | –
10 | FKQSNSETFLQFYVKRW [CDC53] | 2.93 ± 0.13 | 2.96 ± 0.071 | 2.96 ± 0.097 | 2.76 ± 0.1
11 | ILQQRSKINSTELLDYA [MED4] | 2.84 ± 0.086 | 2.61 ± 0.081 | 2.44 ± 0.054 | 2.97 ± 0.11
12 | NEEGDWSCIVVENWIID [ITC1] | 2.38 ± 0.074 | 2.48 ± 0.082 | 2.68 ± 0.12 | 2.95 ± 0.11
13 | QFASPVRWIETQDVFLK [FAS2] | 2.3 ± 0.026 | 2.06 ± 0.022 | 2.25 ± 0.027 | 2.195 ± 0.018
14 | TSASNTSMNGVHNTVAA [SNF5] | 2.66 ± 0.042 | 2.86 ± 0.04 | 2.9 ± 0.051 | 2.9 ± 0.047
15 | VAIAETDSWESFFVSVR [FAS1] | – | 3.05 ± 0.3 | – | –
16 | NARMPGMPNMPGMPNMP [SRP54] | 3.34 ± 0.11 | 3.25 ± 0.085 | 3.09 ± 0.062 | 2.94 ± 0.071
17 | IIKDYVLDIVPGSSITE [SRB4] | – | 2.58 ± 0.19 | – | 3.2 ± 0.19
18 | VEESGEHVILGNGELYM [SNU114] | 3.31 ± 0.08 | 3.12 ± 0.066 | 3.3 ± 0.051 | 3.13 ± 0.057
19 | ALKDPQTDADRVKDPQW [RIP1] | 3.26 ± 0.081 | 3.68 ± 0.23 | 3.18 ± 0.25 | 3.6 ± 0.16
20 | AQEDVPYLLPYILEAEA [QCR7] | 2.02 ± 0.048 | 1.79 ± 0.046 | 2.03 ± 0.067 | 1.86 ± 0.038
21 | KFNNGVVIAADTRSTQG [PUP1] | 1.6 ± 0.066 | 2.4 ± 0.13 | 2.2 ± 0.2 | 2.7 ± 0.095

Row | Sequence | protein stability index (doa10∆) | protein stability index (pdr5∆) | protein stability index (san1∆) | protein stability index (ubr1∆)
22 | SQSSAAAGASVDDKRRN [RPN6] | 3.38 ± 0.2 | 3.41 ± 0.088 | 3.02 ± 0.087 | 3.25 ± 0.087
23 | NNNNNNNDDNGNNNNNN [MED2] | 3.277 ± 0.029 | 3.284 ± 0.023 | 3.327 ± 0.017 | 3.286 ± 0.023
24 | GQLLKDHLIIEPEEEKS [ARP9] | 2.15 ± 0.084 | 1.77 ± 0.066 | 1.6 ± 0.096 | 1.71 ± 0.038
25 | YGVSFFTIQSFVSSLSN [BRR2] | 1.47 ± 0.052 | 1.32 ± 0.058 | 1.18 ± 0.087 | 1.42 ± 0.054
26 | NNSEQDQEIVIQQLHSV [ISW2] | 2.48 ± 0.06 | 2.59 ± 0.071 | 2.2 ± 0.096 | 2.53 ± 0.038
27 | GLALQLFKKLKEENDEG [RPN2] | 3.27 ± 0.12 | 3.28 ± 0.12 | 2.96 ± 0.1 | 3.41 ± 0.096
28 | NEKFEIELLSLDDDSIV [SRB4] | 2.58 ± 0.096 | 3.07 ± 0.093 | 2.72 ± 0.081 | 3.1 ± 0.1
29 | MVMFMHMAKGLYYGSYR [COB] | 1.18 ± 0.086 | 1.16 ± 0.13 | 1.75 ± 0.22 | 1.13 ± 0.072
30 | FAEENITHKLTKNDAGS [BRR2] | 3.26 ± 0.084 | 3.22 ± 0.07 | 2.88 ± 0.055 | 3.46 ± 0.1
31 | STLMPGGVDVGPSVESY [SNF5] | 1.63 ± 0.083 | 1.87 ± 0.083 | 2 ± 0.16 | 2.68 ± 0.087
32 | KLLKIPKFISEALAFTS [YDL116W/NUP84] | 2.32 ± 0.093 | 2.46 ± 0.086 | 2.24 ± 0.1 | 2.75 ± 0.05
33 | MDIAERIAVLHQKTKTL [YGL172W/NUP49] | 2.14 ± 0.076 | 1.67 ± 0.058 | 1.81 ± 0.11 | 1.51 ± 0.067
34 | NQKTSAVAALTEVRAED [RPL8A] | 2.92 ± 0.082 | 2.94 ± 0.071 | 3.18 ± 0.058 | 2.68 ± 0.087
35 | EYSDNFPVSLSQPSKKS [SIR4] | 3.08 ± 0.045 | 3.05 ± 0.046 | 2.98 ± 0.04 | 3.1 ± 0.031
36 | ILDINVSSSKNKKSEEN [SWP82] | 3.36 ± 0.15 | 3.21 ± 0.083 | 3.27 ± 0.08 | 3.27 ± 0.079
37 | MAPLSLNFKDDKKYKGL [REC8] | 2.66 ± 0.089 | 2.61 ± 0.14 | 2.47 ± 0.065 | 2.47 ± 0.075
38 | DPELLRSYIFGGHVSQY [RPL5] | 3.16 ± 0.083 | 3.58 ± 0.13 | 3.33 ± 0.056 | 3.17 ± 0.14
39 | SHNWAAKAKRRHTTGTG [RPL37B] | 3.29 ± 0.1 | 2.92 ± 0.058 | 3.33 ± 0.071 | 3.35 ± 0.056
40 | TQEIRPVNTGVLHVSAK [RRP40] | 2.72 ± 0.12 | 2.91 ± 0.1 | 2.74 ± 0.081 | 3.01 ± 0.11
41 | NSIDSTSRIELELKNIG [ECM29] | 3.24 ± 0.087 | 3.15 ± 0.062 | 2.8 ± 0.05 | 2.72 ± 0.044
